The values that follow come from PMC10953408.

In one experiment the target is LgBit‐IL23R (UniProt Q5VWK5). The experiment in a line: split reporter (BiFC, NanoBiT); complementary NanoBiT-tagged receptor constructs co-expressed in HEK293T cells; luminescence of living cells in HBSS with 1 mg/ml BSA after furimazine, plate reader; with or without 10 nM IL-23, with or without co-expressed untagged IL12Rβ1.
Experiment [1] concerns the target LgBit‐IL12Rβ1 (UniProt P42701). The experiment is described as above.
In experiment [2] the target is NanoBiT complemented heteromer of HiBit‐IL23R and LgBit‐IL12Rβ1 (UniProt Q5VWK5).
The target of experiment [3] is LgBit‐IL12Rβ1 (UniProt P42701). Nature of the experiment: split reporter (BiFC, NanoBiT); HiBit-IL23R (80 ng per well) co-transfected with LgBit-IL12Rβ1 or LgBit-VEGFR-2 (20 ng per well) in HEK293T cells; luminescence given as percent of that of the LgBit receptor alone with 50 nM purified HiBit; HBSS/0.1% BSA, 37°C.
For another experiment, the target named is LgBit‐VEGFR‐2 (UniProt P35968). The description is as above.
Experiment [4] concerns the target NanoBiT complemented heteromer of HiBit‐IL23R and LgBit‐IL12Rβ1 (UniProt Q5VWK5). The experiment in a line: FRET or BRET; NanoBiT BRET saturation: concentration titration of IL23-TMR for 1 h on living HEK293T cells expressing complemented NanoBiT receptors, with or without unlabelled IL-23; HBSS with 1 mg/ml BSA; one site total and nonspecific fit. Background: Bioluminescence resonance energy transfer reports proximity on the nanometre scale.

Experiment [5] has as its target Trimeric or multimeric species of HiBit‐IL23R, LgBit‐IL23R and IL12Rβ1 (UniProt Q5VWK5). Described as above.

As to “SmBit‐IL23R (from UniProt Q5VWK5 24-629) (receptor)”, the fold lower luminescence than the equivalent heteromeric condition with LgBit‐IL23R stood at 2.18 fold. Also, in the experiment with LgBit‐IL12Rβ1 [1], the fold lower luminescence than HiBit-IL23R with LgBit-IL12Rβ1 came to 6.19 fold and the fold luminescence over the mean of the receptor constructs expressed in isolation was found to be 10.3 fold.

In the case of “Recombinant IL‐23 (from UniProt Q9NPF7 20-189; P29460 23-328) (ligand)”, the EC50 of STAT3 phosphorylation (phospho-STAT3 AlphaLISA), increasing concentrations of IL-23 on cells expressing HiBit-IL23R and LgBit-IL12Rβ1 in experiment [2] was determined as 0.193 nM.

Regarding “HiBit‐IL23R (from UniProt Q5VWK5 24-629) (receptor)”, in the experiment with LgBit‐IL23R, the fold lower luminescence than the equivalent heteromeric condition was found to be 2.12 fold and the fold stronger luminescence than the SmBit homomer worked out at 6.36 fold. Also, in the experiment with LgBit‐IL12Rβ1 [1], the fold luminescence over the mean of the receptor constructs expressed in isolation was determined as 73.3 fold. The substance also returned a luminescence as percent of that of LgBit-IL12Rβ1 with 50 nM purified HiBit in the experiment with LgBit‐IL12Rβ1 [3] of 73%. Besides, the luminescence as percent of that of LgBit-VEGFR-2 with 50 nM purified HiBit in the experiment with LgBit‐VEGFR‐2 stood at 11.6%.

By Kd is commonly meant the constant that tells how readily two partners part at equilibrium. As for “Tetramethylrhodamine (TMR) tagged IL‐23 (from UniProt Q9NPF7 20-189; P29460 23-328) (ligand)”, the Kd turned out to be 0.234 nM in experiment [4] and 0.0362 nM in experiment [5].
